The values that follow come from patent publication US7037670B2, “Peptide substrates for assay of extracellular signal-regulated protein kinase 1 and 2 activity” (Board of Supervisors of Louisiana State University and …, priority 2002, dated 2006).

The subject of assay [1] is MAP kinase. The following applies: reported, Kameshita et al., 1997; cited from earlier work.
Assay [2] has as its system ERK1/2. The experiment in a line: In vitro kinase assay on PC12 cellular extracts with no further purification (with and without nerve growth factor). The class given is biochemical, rat. The method, then:
Cells were treated with or without added 100 ng/ml 7S nerve growth factor for up to 8 h. One group of cells was harvested for blot immunolabeling and solubilized with sodium dodecyl sulfate solution, as described in J. W. Haycock, “Multiple forms of tyrosine hydroxylase in human neuroblastoma cells: Quantitation with isoform-specific antibodies,” J. Neurochem., vol. […] A second group of cells was harvested for kinase assays and subjected to trituration in an ice-cold lysis solution of 50 mM β-glycerophosphate, 1 mM EGTA, 1 mM dithiothreitol, 1 mM benzamidine (Eastman Kodak Co., Rochester, N.Y.), 0.1 mM Na3VO4, 10 μg/ml leupeptin, and 0.05% Tween 20. Supernatants from the latter samples were generated by sonication and centrifugation (20 min at 10,000×g) in a refrigerated centrifuge (Savant, Farmingdale, N.J.). In some experiments, ERK1/2 was isolated prior to assaying kinase activity by immunoprecipitation of the PC12 cellular extracts with anti-pan ERK1/2 and protein A-Sepharose. […] ERK activity assays: Aliquots of supernatants or ERK1/2 immunoprecipitates (suspended in lysis solution) were mixed with substrate (1 mM final, unless stated otherwise) at 4° C. Phosphorylation reactions were initiated by addition of an equal volume of assay buffer containing [γ-^32P]ATP (NEN Life Sciences Products, now PerkinElmer Life Sciences, Boston, Mass.) and Mg^++ and allowed to proceed for 10 min at 30° C., after which duplicate 20 μl aliquots were spotted onto Whatman P81 paper. […] Experiments were conducted to test the ability of different substrates to assay for activation of ERK1/2 in situ. […] Cells were harvested and-assayed for ERK1/2 activity by various methods.

In assay [3] the target is ERK2 (Rattus norvegicus, UniProt P63086). The experiment in a line: Steady-state kinetic analyses of peptide substrates for ERK2. The class given is biochemical. The following applies: median of three determinations. The method, then: (§1) ERK activity assays: Aliquots of supernatants or ERK1/2 immunoprecipitates (suspended in lysis solution) were mixed with substrate (1 mM final, unless stated otherwise) at 4° C. Phosphorylation reactions were initiated by addition of an equal volume of assay buffer containing [γ-^32P]ATP (NEN Life Sciences Products, now PerkinElmer Life Sciences, Boston, Mass.) and Mg^++ and allowed to proceed for 10 min at 30° C., after which duplicate 20 μl aliquots were spotted onto Whatman P81 paper. As would be predicted by the presence of multiple basic residues in the peptides, the ability of P81 paper to bind >90% of each of the peptides used in Tables 2 and 3 was confirmed by UV detection following RP-HPLC. The final reaction mixtures (50 μl) contained 50 mM β-glycerophosphate, 10 mM MgCl2, 1 mM EGTA, 1 mM dithiothreitol, 1 mM benzamidine, 0.1 mM ATP, 0.1 mM Na3VO4, 10 μM calmidazolium, 2 μM peptide inhibitor of cyclic AMP-dependent protein kinase ([…], SEQ ID NO: 24), 10 μg/ml leupeptin, and 0.025% Tween 20.
In Table 5, each value represents the median of three independent determinations, performed in duplicate. […] See I. Kameshita et al., 1997. […] 355, pp. 5641-5646 (1996); see also C. N. Prowse et al., “Catalytic reaction pathway for the mitogen-activated protein kinase ERK2,” Biochem., vol. 39, pp. 6258-6266 (2000).

In assay [4] the target is ERK1 (Rattus norvegicus, UniProt P21708). Briefly: Phosphorylation of substrates by purified, activated ERK1 (32P incorporation, P81 paper). It counts as biochemical.
Excerpt: Materials: Purified peptides were obtained from Sigma (St. Louis, Mo.) or custom synthesized by Louisiana State University Health Science Center Core Laboratories (New Orleans La.). Purified, activated ERK1 was a gift from Dr. M. H. Cobb (University of Texas Southwestern Medical Center, Dallas, Tex.). Purified, recombinant, activated ERK2 was a gift from Dr. N. G. Ahn (University of Colorado, Boulder, Colo.). Except as indicated below, other materials were purchased from Sigma. The new synthetic peptides modeled after Ser31 in human tyrosine hydroxylase are indicated.
as §1
To test the effectiveness of various peptide substrates, peptide substrates were compared with myelin basic protein (“MBP,” SEQ ED NO: 1) for relative ability to be phosphorylated by purified ERK1 or ERK2. The ERK activity assay was as described above in Example 1. In Table 2, each value represents the median of three independent determinations, performed in duplicate. While all peptides were assayed at a concentration of 1 mM, MBP phosphorylation—given as a frame of reference at a concentration typically used in such assays—was assayed at 20 μM. ^32P incorporation into MBPtide (SEQ ID NO: 2) was 330 nmol/min/mg under the assay conditions used.

ERK1, sequence (P21708 2-380 limits assumed): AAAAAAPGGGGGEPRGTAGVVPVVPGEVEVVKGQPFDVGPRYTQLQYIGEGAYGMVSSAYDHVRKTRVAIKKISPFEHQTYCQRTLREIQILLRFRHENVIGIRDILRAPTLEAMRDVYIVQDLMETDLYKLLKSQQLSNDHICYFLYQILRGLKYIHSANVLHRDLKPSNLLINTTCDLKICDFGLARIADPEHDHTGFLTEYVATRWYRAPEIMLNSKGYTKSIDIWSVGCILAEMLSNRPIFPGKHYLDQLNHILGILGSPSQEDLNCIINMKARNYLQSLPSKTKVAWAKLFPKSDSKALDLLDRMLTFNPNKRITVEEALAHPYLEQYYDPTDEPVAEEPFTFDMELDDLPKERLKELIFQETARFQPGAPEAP
ERK2, sequence (P63086 2-358 limits assumed): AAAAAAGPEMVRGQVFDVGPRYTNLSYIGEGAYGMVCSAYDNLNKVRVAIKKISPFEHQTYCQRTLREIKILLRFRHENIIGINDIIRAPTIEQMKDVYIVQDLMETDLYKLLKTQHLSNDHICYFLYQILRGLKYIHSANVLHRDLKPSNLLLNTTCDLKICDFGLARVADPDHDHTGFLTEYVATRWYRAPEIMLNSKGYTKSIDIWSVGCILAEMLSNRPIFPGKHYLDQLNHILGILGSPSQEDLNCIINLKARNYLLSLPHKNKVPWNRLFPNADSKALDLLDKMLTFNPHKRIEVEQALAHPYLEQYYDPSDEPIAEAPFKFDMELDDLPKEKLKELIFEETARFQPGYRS

In the case of “APRTPGGRR (This sequence is MBPtide (Thr 97).) [SEQ ID NO: 2]”, the Km in assay [1] is 1600 µM. The “pattern and degree of ERK activation over time compared with ERK immunoprecipitation and blot immunolabeling assays” value in assay [2] (PC12 cells with and without NGF, up to 480 min, extracts without purification) is given as “differed”. The “levels of protein kinase activity in cellular extracts” value in assay [2] (PC12 extracts, no kinase purification, EGTA, calmidazolium, cAMP-dependent protein kinase inhibitor present) is reported as “Higher levels of protein kinase activity”. In addition, in assay [3], the “Kmin(app)” value came out at 2.0 mM. In assay [3] (relative values), the “Vmax(app) Relative” value is reported as 46. The sequence further yielded a 32P incorporation in assay [4] (peptide 1 mM, assay conditions of Table 2) of 330 nmol/min/mg. In addition, the “RELATIVE 32P INCORPORATION (% OF MBP)” value in assay [4] (peptides 1 mM, MBP 20 μM, 10 min at 30° C., median of three determinations) is 28 % OF MBP.
